± gives the uncertainty stated by the source.
B1: SAM and SH3 domain-containing protein 1, residues 630 to 700; numbered along this chain, O94885 (parent)
chain: GRPPQPKSVEDLLDRINLKEHMPTFLFNGYEDLDTFKLLEEEDLDELNIRDPEHRAVLLTAVELLQEYDSN

Variants of: B1
Assay: abundance fitness (aPCA) (normalised: wild type 0, dead -1); higher = more abundant; growth selection in yeast, the domain comes from the species named
Conditions: Homo sapiens

Variant | abundance fitness
L26W | -0.533 ± 0.064
L26S | -0.337 ± 0.045
L26K | 0.034 ± 0.044
L26R | -0.111 ± 0.039
L26Y | -0.181 ± 0.055
F27N | 0.418 ± 0.04
F27V | 0.235 ± 0.037
F27W | -0.449 ± 0.054
F27G | 0.166 ± 0.039
F27K | 0.507 ± 0.04
F27I | 0.157 ± 0.045
F27P | -0.655 ± 0.061
E67N | -0.1 ± 0.048
E67G | -0.107 ± 0.046
E67L | -0.468 ± 0.041
E67D | 0.02 ± 0.053
E67M | -0.342 ± 0.049
E20W | -0.879 ± 0.13
E20N | -0.455 ± 0.084
E20T | -0.48 ± 0.065
E20A | -0.699 ± 0.084
E20D | -0.498 ± 0.11
E20G | -0.673 ± 0.094
S70T | 0.422 ± 0.28

Variant | abundance fitness
R2E | -0.634 ± 0.1
R2S | -0.446 ± 0.056
R2Q | -0.412 ± 0.076
R2D | -0.137 ± 0.063
R2H | -0.301 ± 0.085
R2I | -0.011 ± 0.047
R2W | -0.643 ± 0.11
V9Q | -0.796 ± 0.087
V9M | -0.52 ± 0.07
V9L | 0.032 ± 0.035
V9K | -0.701 ± 0.077
V9P | -0.632 ± 0.063
E42K | 0.283 ± 0.048
E42P | -0.124 ± 0.042
E42W | -0.618 ± 0.08
E42T | 0.035 ± 0.039
E42A | 0.104 ± 0.04
K19V | -0.293 ± 0.042
K19N | -0.211 ± 0.047
K19C | -0.419 ± 0.056
K19T | 0.042 ± 0.036
K19Y | -0.532 ± 0.06
K19D | -0.643 ± 0.079
K19M | -0.058 ± 0.043

Variant | abundance fitness
D11V | -0.852 ± 0.068
D11M | -0.97 ± 0.088
D11C | -0.795 ± 0.079
N28H | 0.109 ± 0.041
N28W | -0.553 ± 0.071
N28P | -0.856 ± 0.075
N28D | -0.812 ± 0.091
N28S | -0.395 ± 0.039
D34C | -0.468 ± 0.061
D34N | -0.123 ± 0.041
D34K | -0.291 ± 0.054
R55T | -0.89 ± 0.083
R55F | -0.864 ± 0.093
R55L | -1.01 ± 0.071
R55Q | -0.5 ± 0.071
R55Y | -0.935 ± 0.093
N71F | -0.117 ± 0.082
N71K | 0.007 ± 0.058
N71D | 0.197 ± 0.047
N71A | 0.116 ± 0.045
N71G | 0.041 ± 0.053
Y68W | -0.056 ± 0.051
Y68A | 0.245 ± 0.039
Y68I | -0.191 ± 0.055

Variant | abundance fitness
Y68E | 0.21 ± 0.053
L33W | -1.19 ± 0.17
L33A | -0.883 ± 0.087
L33H | -0.791 ± 0.083
L33N | -0.764 ± 0.081
L33D | -0.76 ± 0.092
L33T | -0.828 ± 0.08
L33Y | -1.15 ± 0.12
G1R | -0.203 ± 0.07
G1E | 0.166 ± 0.074
G1K | 0.163 ± 0.096
G1A | -0.064 ± 0.055
G1D | 0.195 ± 0.057
L13Y | -0.905 ± 0.096
L13E | -0.572 ± 0.081
L13W | -0.99 ± 0.095
L13A | -0.788 ± 0.075
N17T | -0.842 ± 0.064
N17W | -0.956 ± 0.096
N17F | -0.726 ± 0.085
N17H | -0.2 ± 0.049
N17L | -0.891 ± 0.059
N17D | -0.234 ± 0.057
N17A | -0.349 ± 0.046

Variant | abundance fitness
E53R | -0.266 ± 0.045
E53K | -0.131 ± 0.048
E53V | -0.283 ± 0.046
E53I | -0.542 ± 0.063
E53T | -0.207 ± 0.043
E53P | -0.924 ± 0.09
Q5R | -0.25 ± 0.049
Q5H | -0.033 ± 0.055
Q5G | -0.694 ± 0.093
Q5P | -0.276 ± 0.055
Q5S | -0.334 ± 0.047
Q5F | 0.068 ± 0.048
Q5K | -0.258 ± 0.061
Y30P | -0.767 ± 0.081
Y30F | 0.058 ± 0.044
Y30N | -0.833 ± 0.08
Y30W | -0.012 ± 0.054
L12S | -0.75 ± 0.057
L12N | -0.794 ± 0.088
L12Q | -0.679 ± 0.077
L12A | -0.846 ± 0.065
L12D | -0.784 ± 0.089
L12H | -0.924 ± 0.096
R15A | 0.055 ± 0.038

Variant | abundance fitness
R15P | -0.828 ± 0.072
R15T | -0.164 ± 0.04
R15N | -0.075 ± 0.046
R15W | -0.411 ± 0.071
L59D | -0.577 ± 0.067
L59F | -0.792 ± 0.07
L59T | -0.562 ± 0.055
L59G | -0.511 ± 0.052
L59P | -0.445 ± 0.051
P3R | -0.302 ± 0.046
P3I | 0.035 ± 0.047
P3D | 0.2 ± 0.053
P3M | 0.008 ± 0.049
P3C | -0.073 ± 0.052
E10T | -0.559 ± 0.052
E10Q | -0.445 ± 0.066
E10L | -0.532 ± 0.045
E10A | -0.145 ± 0.046
E10V | -0.413 ± 0.053
L18M | 0.158 ± 0.044
L18H | -0.714 ± 0.076
L18E | -0.797 ± 0.092
L18V | -0.742 ± 0.052
L18T | -0.73 ± 0.06

Variant | abundance fitness
L65V | -0.452 ± 0.056
L65H | -0.853 ± 0.083
L65Y | -0.961 ± 0.093
L65D | -0.511 ± 0.09
L65G | -0.808 ± 0.076
D51C | -0.396 ± 0.052
D51E | -0.369 ± 0.063
D51H | -0.447 ± 0.052
D51G | -0.75 ± 0.063
D51T | -0.505 ± 0.048
N48F | -0.983 ± 0.19
N48D | 0.024 ± 0.093
N48E | 0.084 ± 0.099
N48P | -0.837 ± 0.16
N48H | -0.056 ± 0.12
N48A | -0.343 ± 0.088
N48L | -0.741 ± 0.1
V62H | -0.596 ± 0.072
V62D | -0.607 ± 0.11
V62W | -0.8 ± 0.079
D14Y | -0.602 ± 0.069
R50T | 0.183 ± 0.037
R50I | -0.11 ± 0.052

Reference: the Human Domainome abundance scans (Beltran et al. 2025)
